Data taken from patent publication US20100092461A1, “Remedy For Chemotherapy-Resistant Cancer Containing HLA Class I-Recognizing Antibody as the Active Ingredient and Use of the Same” (CHUGAI SEIYAKU KABUSHIKI KAISHA, priority 2007, published 2010).

Tests used:
[1] = tested on: BLTH; assay: Cytotoxic activity, cell growth test using WST-8, BLTH; type: cell-based; details: FIG. 6
Method: (§1) Acute myeloid leukemia cell line HL60 (American Type Culture Collection, Manassas, Va., USA) and Burkitt's lymphoma cell line BLTH (kindly gifted from Prof Hirose at The University of Tokushima, Br. J. Cancer (1987) 56: 413-417) were cultured in the presence of vincristine to obtain vincristine-resistant cell lines HL60-R and BLTH-R.
(§2) First, these tumor cells were used to examine their susceptibility to C3B3-DB. These tumor cells were cultured in the presence of various concentrations of C3B3-DB and then antitumor activity (cytotoxic activity) of C3B3-DB was measured by cell growth tests using WST-8 (Kishida Chemicals, Osaka).
(§3) In addition, whether or not drug resistance in chemotherapeutic agent-resistant tumor cells can be overcome (improved) was examined by culturing these cells in the presence or absence of C3B3-DB (0.1 μg/mL) for six hours and then adding vincristine.

[2] = tested on: HL60; assay: Cytotoxic activity, cell growth test using WST-8, HL60; type: cell-based; details: FIG. 6
Method: as §1, §2, §3

[3] = tested on: vincristine-resistant cell lines; assay: Daunorubicin uptake into cells (accumulation and efflux phase, flow cytometry), vincristine-resistant cell lines; type: cell-based; details: FIG. 8
Method: (§4) To elucidate the mechanism of overcoming drug (chemotherapeutic agent)-resistance using C3B3-DB, MDR1 expression on the cell surface was examined after treating these cells for six hours with C3B3-DB (0.1 μg/mL). […] Furthermore, treatment of these cells with C3B3-DB was followed by culturing these cells in the presence of daunorubicin (0.1 μg/mL, Meiji Seika, Tokyo) and the amount of daunorubicin uptake into cells were compared.
(§5) Specifically, uptake of the pharmaceutical agent into the cells (accumulation phase) was evaluated by culturing the cells for two hours in the presence or absence of C3B3-DB, then adding daunorubicin and culturing the cells for 30 minutes, washing the cells, and then measuring the PE intensity by flow cytometry. The cells were cultured for another 30 minutes to evaluate persistence of the pharmaceutical agent in the cells (efflux phase) in a same manner using flow cytometry.

[4] = tested on: parent cell lines; assay: Daunorubicin uptake into cells (accumulation and efflux phase, flow cytometry), parent cell lines; type: cell-based; details: FIG. 8
Method: as §4, §5

[5] = tested on: human myeloma cells; details: various human myeloma cell lines; cited from earlier work
[6] = tested on: multiple myeloma model mice generated by transplanting human myeloma cell line; details: cited from earlier work
[7] = tested on: HL60-R; assay: Cytotoxic activity, cell growth test using WST-8, HL60-R; type: cell-based
Method: as §1, §2, §3

[8] = tested on: MDR1; assay: MDR1 expression on the cell surface after C3B3-DB treatment (flow cytometry); type: cell-based; details: six hours with C3B3-DB 0.1 μg/mL, chemotherapeutic agent-resistant cell lines, FIG. 7
Source text: MDR1 expression on the cell surface was examined by flow cytometry using anti-MDR1 antibody (UIC-2, Chemicon, Temecula, Calif., USA) and FITC-labeled goat anti-mouse IgG antibody (Biosource, Camarillo, Calif., USA). Mouse IgG (BD Biosciences, San Jose, Calif., USA) was used for the control antibody.
as §4

[9] = used alone, compared with 2D7 diabody used alone, Patent Document 5; cited from earlier work
[10] = tested on: activated lymphocytes; details: cited from earlier work
[11] = tested on: BLTH-R; assay: Cytotoxic activity, cell growth test using WST-8, BLTH-R; type: cell-based
Method: as §1, §2, §3

[12] = C3B3-DB two hours then daunorubicin

## CC[C@]1(O)C[C@H]2CN(CCc3c([nH]c4ccccc34)[C@@](C(=O)OC)(c3cc4c(cc3OC)N(C=O)[C@H]3[C@@](O)(C(=O)OC)[C@H](OC(C)=O)[C@]5(CC)C=CCN6CC[C@]43[C@@H]65)C2)C1 [vincristine, reference compound]
[1]; with or without C3B3-DB pre-treatment
  cell injury by vincristine: concentration-dependent cell injury
[2]; HL60, with or without C3B3-DB pre-treatment
  cell injury by vincristine: concentration-dependent cell injury

## COc1cccc2c1C(=O)c1c(O)c3c(c(O)c1C2=O)C[C@@](O)(C(C)=O)C[C@@H]3O[C@H]1C[C@H](N)[C@H](O)[C@H](C)O1 [daunorubicin, reference compound]
[3]; daunorubicin 0.1 μg/mL, both phases
  amount of daunorubicin uptake into cells: significantly decreased
[4]; daunorubicin 0.1 μg/mL, accumulation and efflux phase
  amount of daunorubicin uptake into cells: a certain amount of daunorubicin was taken up

B1: C3B3-DB: C3B3 diabody, a low-molecular-weight antibody of the C3B3 antibody recognizing HLA class I (protein)
scFv: EVKLVESEGGLVQPGSSMKLSCTASGFTFSDHYMAWVRQVPEKGLEWVADINYDGSRTYYLDSLKSRFIISRDNGKNILYLQMSSLKSEDTATYYCARDRVRSSYYSNLFAMDYWGQGISVTVSSGGGGSDIQMTQTTSSLSASLGDRVTISCRASQDIANYLNWYQQKPDGTVKLLIYYTSRLHSGVPSRFSGSGSGTDYSLTISNLEPEDIATYYCQQYSKLPYTFGSGTKLEIK
modifications: left off: small tags and cut ends
[3]; [12]
  pre-treatment effect on amount of daunorubicin uptake: increased the amount of uptake
[1]; C3B3-DB 0.1 μg/mL for six hours then vincristine
  cytotoxic activity enhancement of vincristine due to pre-treatment: not observed
[4]; [12]
  pre-treatment effect on amount of daunorubicin uptake: not observed
[5]
  cell death-inducing activity: strong cell death-inducing activity
[6]
  survival benefit: significant survival benefit
[7]; C3B3-DB alone, 24 hours, HL60-R compared with parent HL60, FIG. 5
  cytotoxic activity (survival rate of the cells): cell injury was induced at lower concentrations
[7]; HL60-R, C3B3-DB 0.1 μg/mL for six hours then vincristine, FIG. 6
  cytotoxic activity enhancement of vincristine due to pre-treatment: enhanced
[8]
  MDR1 expression on the cell surface: decrease in some cells
[9]
  antitumor effects: stronger antitumor effects than 2D7 diabody
[2]; HL60, C3B3-DB 0.1 μg/mL for six hours then vincristine
  cytotoxic activity enhancement of vincristine due to pre-treatment: not observed
[10]
  cell death-inducing activity: strong cell death-inducing activity
[11]; BLTH-R, C3B3-DB 0.1 μg/mL for six hours then vincristine, FIG. 6
  cytotoxic activity enhancement of vincristine due to pre-treatment: enhanced
[11]; C3B3-DB alone, 24 hours, BLTH-R compared with parent BLTH, FIG. 5
  cytotoxic activity (survival rate of the cells): cell injury was induced at lower concentrations
